Source: the Human Domainome abundance scans (Beltran et al. 2025)
± gives the uncertainty stated by the source.

B1: POU domain, class 2, transcription factor 3, residues 186 to 260; numbered along this chain, Q9UKI9 (parent)
chain: SDLEELEKFAKTFKQRRIKLGFTQGDVGLAMGKLYGNDFSQTTISRFEALNLSFKNMCKLKPLLEKWLNDAESSP

Variants of: B1
Experiment: abundance fitness (aPCA) (normalised: wild type 0, dead -1); higher = more abundant; growth selection in yeast, the domain comes from the species named
Conditions: Homo sapiens

Variant | abundance fitness
SDLEELEKFAKTFKQRRIKLGFTQGDVGLAMGKLYGADFSQTTISRFEALNLSFKNMCKLKPLLEKWLNDAESSP [N37A] | 0.02 ± 0.027
SDLEELEKFAKTFKQRRIKLGFTQGDVGLAMGKLYGDDFSQTTISRFEALNLSFKNMCKLKPLLEKWLNDAESSP [N37D] | 0.023 ± 0.039
SDLEELEKFAKTFKQRRIKLGFTQGDVGLAMGKLYGTDFSQTTISRFEALNLSFKNMCKLKPLLEKWLNDAESSP [N37T] | -0.013 ± 0.033
SDLEELEKFAKTFKQRRIKLGFTQGDVGLAMGKLYGGDFSQTTISRFEALNLSFKNMCKLKPLLEKWLNDAESSP [N37G] | 0.024 ± 0.021
SDLEELEKFAKTFKQRRIKLGFTQGDVGLAMGKLYGWDFSQTTISRFEALNLSFKNMCKLKPLLEKWLNDAESSP [N37W] | -0.07 ± 0.027
SDLEELEKFAKTFKQRRIKLGFTQGDVGLGMGKLYGNDFSQTTISRFEALNLSFKNMCKLKPLLEKWLNDAESSP [A30G] | -0.288 ± 0.27
SDLEELEKFAKTFKQRRIKLGFTQGVVGLAMGKLYGNDFSQTTISRFEALNLSFKNMCKLKPLLEKWLNDAESSP [D26V] | -0.227 ± 0.49
SDLEELEKFAKTFKQRRIKLGFTQGRVGLAMGKLYGNDFSQTTISRFEALNLSFKNMCKLKPLLEKWLNDAESSP [D26R] | -0.344 ± 0.2
SDLEELEKFAKTFKQRRIKLGFTQGGVGLAMGKLYGNDFSQTTISRFEALNLSFKNMCKLKPLLEKWLNDAESSP [D26G] | -0.125 ± 0.11
SDLEELEKFAKTFKQRRIKLGFTQGDDGLAMGKLYGNDFSQTTISRFEALNLSFKNMCKLKPLLEKWLNDAESSP [V27D] | -0.727 ± 0.4
SDLEELEKFAKTFKQRRIKLGFTQGDVQLAMGKLYGNDFSQTTISRFEALNLSFKNMCKLKPLLEKWLNDAESSP [G28Q] | -0.59 ± 0.47
SDLEELEKFAKTFKQRRIKLGFTQGDVRLAMGKLYGNDFSQTTISRFEALNLSFKNMCKLKPLLEKWLNDAESSP [G28R] | -0.191 ± 0.17
SDLEELEKFAKTFKQRRIKLGFTQGDVCLAMGKLYGNDFSQTTISRFEALNLSFKNMCKLKPLLEKWLNDAESSP [G28C] | -0.367 ± 0.22
SDLEELEKFAKTFKQRRIKLGFTQGDVTLAMGKLYGNDFSQTTISRFEALNLSFKNMCKLKPLLEKWLNDAESSP [G28T] | 0.087 ± 0.46
SDLEELEKFAKTFKQRRIKLGFTQGDVALAMGKLYGNDFSQTTISRFEALNLSFKNMCKLKPLLEKWLNDAESSP [G28A] | -0.055 ± 0.11
SDLEELEKFAKTFKQRRIKLGFTQGDVGLAMRKLYGNDFSQTTISRFEALNLSFKNMCKLKPLLEKWLNDAESSP [G32R] | 0.29 ± 0.27
SDLEELEKFAKTFKQRRIKLGFTQGDVGTAMGKLYGNDFSQTTISRFEALNLSFKNMCKLKPLLEKWLNDAESSP [L29T] | -0.083 ± 0.031
SDLEELEKFAKTFKQRRIKLGFTQGDVGSAMGKLYGNDFSQTTISRFEALNLSFKNMCKLKPLLEKWLNDAESSP [L29S] | -0.003 ± 0.025
SDLEELEKFAKTFKQRRIKLGFTQGDVGWAMGKLYGNDFSQTTISRFEALNLSFKNMCKLKPLLEKWLNDAESSP [L29W] | -0.121 ± 0.031

Variant | abundance fitness
SDLEELEKFAKTFKQRRIKLGFTQGDVGHAMGKLYGNDFSQTTISRFEALNLSFKNMCKLKPLLEKWLNDAESSP [L29H] | -0.062 ± 0.042
SDLEELEKFAKTFKQRRIKLGFTQGDVGVAMGKLYGNDFSQTTISRFEALNLSFKNMCKLKPLLEKWLNDAESSP [L29V] | -0.007 ± 0.024
SDLEELEKFAKTFKQRRIKLGFTQGDVGIAMGKLYGNDFSQTTISRFEALNLSFKNMCKLKPLLEKWLNDAESSP [L29I] | 0.022 ± 0.042
SDLEELEKFAKTFKQRRIKLGFTQGDVGRAMGKLYGNDFSQTTISRFEALNLSFKNMCKLKPLLEKWLNDAESSP [L29R] | 0.019 ± 0.022
SDLEELEKFAKTFKQRRIKLGFTQGDVGEAMGKLYGNDFSQTTISRFEALNLSFKNMCKLKPLLEKWLNDAESSP [L29E] | 0.02 ± 0.029
SDLEELEKFAKTFKQRRIKLGFTQGDVGDAMGKLYGNDFSQTTISRFEALNLSFKNMCKLKPLLEKWLNDAESSP [L29D] | -0.045 ± 0.039
SDLEELEKFAKTFKQRRIKLGFTQGDVGAAMGKLYGNDFSQTTISRFEALNLSFKNMCKLKPLLEKWLNDAESSP [L29A] | 0.024 ± 0.027
SDLEELEKFAKTFKQRRIKLGFTQGDVGGAMGKLYGNDFSQTTISRFEALNLSFKNMCKLKPLLEKWLNDAESSP [L29G] | -0.042 ± 0.022
SDLEELEKFAKTFKQRRIKLGFTQGDVGQAMGKLYGNDFSQTTISRFEALNLSFKNMCKLKPLLEKWLNDAESSP [L29Q] | 0.007 ± 0.029
SDLEELEKFAKTFKQRRIKLGFTQGDVGCAMGKLYGNDFSQTTISRFEALNLSFKNMCKLKPLLEKWLNDAESSP [L29C] | 0.026 ± 0.036
SDLEELEKFAKTFKQRRIKLGFTQGDVGPAMGKLYGNDFSQTTISRFEALNLSFKNMCKLKPLLEKWLNDAESSP [L29P] | -0.47 ± 0.039
SDLEELEKFAKTFKQRRIKLGFTQGDVGMAMGKLYGNDFSQTTISRFEALNLSFKNMCKLKPLLEKWLNDAESSP [L29M] | 0.05 ± 0.031
SDLEELEKFAKTFKQRRIKLGFTQGDVGKAMGKLYGNDFSQTTISRFEALNLSFKNMCKLKPLLEKWLNDAESSP [L29K] | 0.042 ± 0.029
SDLEELEKFAKTFKQRRIKLGFTQGDVGFAMGKLYGNDFSQTTISRFEALNLSFKNMCKLKPLLEKWLNDAESSP [L29F] | -0.099 ± 0.045
SDLEELEKFAKTFKQRRIKLGFTQGDVGYAMGKLYGNDFSQTTISRFEALNLSFKNMCKLKPLLEKWLNDAESSP [L29Y] | -0.06 ± 0.041
SDLEELEKFAKTFKQRRIKLGFTQGDVGLAMGGLYGNDFSQTTISRFEALNLSFKNMCKLKPLLEKWLNDAESSP [K33G] | 0.141 ± 0.19
SDLEELEKFAKTFKQRRIKLGFTQGDVGLAMGRLYGNDFSQTTISRFEALNLSFKNMCKLKPLLEKWLNDAESSP [K33R] | 0.129 ± 0.42
SDLEELEKFAKTFKQRRIKLGFTQGDVGLAMGWLYGNDFSQTTISRFEALNLSFKNMCKLKPLLEKWLNDAESSP [K33W] | -0.372 ± 0.22
